T1: IL-12 subunit beta (p40), as in the recombinant human IL-23 of the crystal structure (human, UniProt P29460 23-328, C-mannosylated Trp319; N-linked glycans limited by kifunensine and trimmed with EndoH)
T1 construct: signal peptide in the construct; IL-12 subunit beta (p40), human, residues 1-328, cDNA as NCBI NM_002187.2 (silent codon change at Asn248); The p40 chain of m3, written alone for the pairs of the crystal structure; also called IL-23 p40; source: HEK-293T, co-transfected with p19-His, purified as IL-23 (Talon IMAC, SEC)
T1 sequence (looked up): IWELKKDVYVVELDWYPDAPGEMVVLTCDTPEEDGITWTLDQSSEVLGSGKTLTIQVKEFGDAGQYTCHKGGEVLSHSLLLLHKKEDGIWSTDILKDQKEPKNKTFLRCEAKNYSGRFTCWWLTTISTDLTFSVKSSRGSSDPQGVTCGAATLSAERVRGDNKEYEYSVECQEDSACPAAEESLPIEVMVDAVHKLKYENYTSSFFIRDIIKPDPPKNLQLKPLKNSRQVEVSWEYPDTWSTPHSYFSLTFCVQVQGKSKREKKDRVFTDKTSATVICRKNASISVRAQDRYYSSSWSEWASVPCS

T2: recombinant human IL-23 (p19-His co-expressed with p40 in HEK-293T) (human, UniProt Q9NPF7 20-189; P29460 23-328, N-linked glycans limited by kifunensine and trimmed with EndoH | C-mannosylated Trp319; N-linked glycans limited by kifunensine and trimmed with EndoH)
T2 chain 1: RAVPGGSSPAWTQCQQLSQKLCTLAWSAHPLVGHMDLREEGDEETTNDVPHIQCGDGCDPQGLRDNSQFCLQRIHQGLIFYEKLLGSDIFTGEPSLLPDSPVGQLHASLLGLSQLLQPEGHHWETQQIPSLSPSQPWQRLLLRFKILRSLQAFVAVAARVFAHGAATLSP
T2 chain 2: T1 sequence (looked up)

B1: IL-23 subunit alpha (p19), as in the recombinant human IL-23 of the crystal structure (natural protein, UniProt Q9NPF7 20-189, looked up)
chain: T2 chain 1
modifications: N-linked glycans limited by kifunensine and trimmed with EndoH
notes: signal peptide in the construct; IL-23 subunit alpha (p19), human, residues 1-189, cDNA as NCBI NM_016584.2; residue numbers as in UniProt; The p19 chain of m3, written alone for the pairs of the crystal structure; also called IL-23 p19; source: HEK-293T, co-transfected with p40, purified as IL-23 (Talon IMAC, SEC)
B2: MA12_B2fC Alphabody (His-tag removed, cysteine blocked) (designed binder)
chain: SIQEIQKEIAQIQAVIAGIQKYIYTMTGGSGGGSGGGSGGGSGMSIEEIQKQIAAIQCQIAAIQKQIYAMTGGSGGGSGGGSGGGSGMSIEEIQKQIAAIQEQILAIYKQIMAMVT
modifications: free cysteine blocked with iodoacetamide

Legend:
[1] = target: T1, IL-12 subunit beta (p40), as in the …; experiment: crystal structure; IL-23:MA12_B2fC complex, two crystal forms (PEG 3,350 with Na2SO4 or potassium formate), molecular replacement with PDB 3DUH; settings: both partners purified
[2] = target: T2, recombinant human IL-23 (p19-His …); experiment: SPR
[3] = target: T2, recombinant human IL-23 (p19-His …); experiment: SPR
[4] = target: recombinant human IL-23 (p19-His co-expressed with p40 in HEK-293T) (human) (UniProt Q9NPF7); experiment: ITC; VP-ITC, 30 °C, 20 mM Hepes, 150 mM NaCl, pH 7.4; IL-23 4.9 μM in the cell, MA12 53.2 μM in the syringe; one binding site model; apparent

Binder	binding result [1]	koff [2] [s⁻¹]	Kd [3] [nM]	Kd [4] [nM]	stoichiometry N [4]
B1	binds	–	–	–	–
B2	–	0.000122	0.463	0.35	1

From publication PMC4220489 (Nature Communications, 2014)
